Reference: the supplement of paper PMC11780869

System: Bacillus subtilis
Assay: cleaved RNA product abundance (RNA/gDNA barcode ratio) relative to median wild-type variant (ratio to wild type); higher = more accumulation of the downstream cleavage product
Method in brief: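 Cleaved product abundance for each construct is its RNA-to-gDNA barcode ratio, scaled to the median construct carrying the unmutated site. Cleaved RNA was isolated on a gel, reverse transcribed and barcode-sequenced, with genomic DNA barcodes sequenced alongside and UMIs collapsed. The reporters were truncated aprE or tetM mRNAs with barcoded, mutagenized RNase Y cleavage-site windows integrated into the B. subtilis chromosome, and cultures grew in LB at 37°C from OD600 0.0003 to 0.3.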

[1] = experiment (reporter, strain, medium): exp 2b: truncated aprE reporter, strain BJT200, cleavage site: cggR-gapA (positions -7 to +36 mutated)
[2] = experiment (reporter, strain, medium): exp 4a: truncated aprE reporter, strain BJT201 with 2% xylose (RNase J1 expressed), cleavage site: cggR-gapA (positions -7 to +36 mutated)
[3] = experiment (reporter, strain, medium): exp 8a: truncated aprE reporter, strain BJT201 with 2% xylose (RNase J1 expressed), cleavage site: glnRA (positions -5 to +31 mutated)

Sequence	cleaved RNA product abundance [1]	cleaved RNA product abundance [2]	cleaved RNA product abundance [3]	further results
ACAGACGAAGGAGCCGCAAAGAACTTATTAAGGGATGAATAATACCTCAATATAAATATCTCTCACTTATTTAAA	0.0995	0.165		
CGACATGTCCCGCTTCTTTCATTAATCCGTTAGAAATTGTTTTGCTATATACATTTACCTTTTAAGAGGAGGAAT			0.342	
CGACATGTCCCGCTTCTTTCATTATTCCGTTAGCAACTGTTTTGCTATATATATTTACCTTTTAAGAGGAGGAAT			1.45	
CGACATGTCCCGCTTCTTTCATTAATCCGTAAGCAACTGTTTTGTTATATACATTTACCTTTTAAGAGGAGGAAT			0.391	
ACAGACGAAGGAGCCGCAAAGAAGTTATTAAGGCATGAATAATCCCTCAATATTAATATCTCTCACTTATTTAAA		0.0489		
ACAGACGAAGGAGCCGCAAAGAAGTCATTAAGGGATGAATAAACCCTCAATATAAATATCTCTCACTTATTTAAA		0.176		
CGACATGTCCCGCTTCTTTCATTAATCCGTAAGCAACTGTTTTGATATATACATTTACCTTTTAAGAGGAGGAAT			0.329	
ACAGACGAAGGAGCCGCAAATAAGTTATCAAGGGATGAATAATCCCTCAATATAAATATCTCTCACTTATTTAAA		0.278		
ACAGACGAAGGAGCCGCAAAGAAGTTATTAAGGGGTCAATAATCCCTCAATATAAATATCTCTCACTTATTTAAA		0.611		
ACAGACGAAGGAGCCGCATAGAAGTTATTAAGGGATGAATAATACCTCAATATAAATATCTCTCACTTATTTAAA	0.115	0.179		
CGACATGTCCCGCTTCTTTCATTAATCCGTTAGCAAATGTTTTGCTTTATACATTTACCTTTTAAGAGGAGGAAT			0.298	
CGACATGTCCCGCTTCTTTCATTAATCCGTTAGTAACTGTTTTGCTATAAACATTTACCTTTTAAGAGGAGGAAT			0.389	
ACAGACGAAGGAGCCGCAAAGAAGTTACTAAGGGATGAATAATCCCACAATATAAATATCTCTCACTTATTTAAA	0.126	0.153		
ACAGACGAAGGAGCCGCAAAGAAGTTACTAAGTGATGAATAATCCCTCAATATAAATATCTCTCACTTATTTAAA	0.0989	0.102		
CGACATGTCCCGCTTCTTTCATTAATCCGTTAGCAAATGTTTTACTATATACATTTACCTTTTAAGAGGAGGAAT			0.73	
ACAGACGAAGGAGCCGCAAAGAAGTTATTAATGGATGAATAATCCCTCAATAGAAATATCTCTCACTTATTTAAA		0.0769		
ACAGACGAAGGAGCCGCAAAGAAGTTATTAAGGGATGAATAATCCCTAAATATAAACATCTCTCACTTATTTAAA	0.509	0.57		
ACAGACGAAGGAGCCGCAAAGAAGTTATTAATGGATGAATAATCCCTCAGTATAAATATCTCTCACTTATTTAAA	0.0853	0.0629		
CGACATGTCCCGCTTCTTTCATTATTCCGATAGCAACTGTTTTGCTATATACATTTACCTTTTAAGAGGAGGAAT			0.898	
ACAGACGAAGGAGCCGCAAAGAAGTGATTAAGGGATGAATAGTCCCTCAATATAAATATCTCTCACTTATTTAAA	0.184	0.274		
ACAGACGAAGGAGCCGCAAAGAAGTTATTAGGGGATGAATAATCACTCAATATAAATATCTCTCACTTATTTAAA	0.114	0.112		
ACAGACGAAGGAGCCGCAAAGAAGTTATTAAGGGATGAATAATCCCACAATATGAATATCTCTCACTTATTTAAA	0.107	0.0667		
ACAGACGAAGGAGCCGCAACGAAGTTATTAAGGGAAGAATAATCCCTCAATATAAATATCTCTCACTTATTTAAA		1.23		
ACAGACGAAGGAGCCGCAAAGTAGTTATTAAGGGATGAATAATCCCTTAATATAAATATCTCTCACTTATTTAAA	0.869			cleaved RNA product abundance (experiment (reporter, strain, medium): exp 6: tetM reporter, strain 168, cleavage site: cggR-gapA (positions -7 to +36 mutated)): 0.729
ACAGACGAAGGAGCCGCAAAGAAGTTATTAAGGGATGAATAAATCCCTCAATATAAATATCTCTCACTTATTTAA		0.537		
CGACATGTCCCGCTTCTTTCATTAATCCGTTAGCAACTGTTTTCCTATATACATTTATCTTTTAAGAGGAGGAAT			0.55	
ACAGACGAAGGAGCCGCAAAGAAGTTATTAAGGGATGAATAATCCCTCAAATATAAATATCTCTCACTTATTTAA	0.38	0.539		

Sequence	cleaved RNA product abundance [1]	cleaved RNA product abundance [2]	cleaved RNA product abundance [3]	further results
ACAGACGAAGGAGCCGCTAAGAAGTTCTTAAGGGATGAATAATCCCTCAATACAAATATCTCTCACTTATTTAAA		0.0591		
ACAGACGAAGGAGCCGCAAAGAATTTATTAAGGGATTAATAATCCCTCAATATAAATATCTCTCACTTATTTAAA	0.771	0.772		
ACAGACGAAGGAGCCGCAAAGTAGTTATTAAGGGATGAATAATCCTTCAATATAAATATCTCTCACTTATTTAAA		0.543		
ACAGACGAAGGAGCCGCAAAGAAGTTATTAAGGAATGAATAATCCCACAATATAAATATCTCTCACTTATTTAAA		0.0935		
ACAGACGAAGGAGCCGCAAAGAAGTTATTATGGGATGATTAATCCCTCAATATAAATATCTCTCACTTATTTAAA		0.414		
ACAGACGAAGGAGCCGCTAAGAAGTTATTAAGGGATGAATAATCCCCCAATATAAATATCTCTCACTTATTTAAA		0.342		
ACAGACGAAGGAGCCGCAAAGAAGTTATTAAGGGATGAATAATACCTCAATATAGATATCTCTCACTTATTTAAA		0.147		
ACAGACGAAGGAGCCGCAAAGAAGTGATTAAGGGTTGAATAATCCCTCAATATAAATATCTCTCACTTATTTAAA	0.15	0.263		
ACAGACGAAGGAGCCGCAAAGAAGTTATTATGGCATGAATAATCCCTCAATATAAATATCTCTCACTTATTTAAA	0.0973	0.184		
ACAGACGAAGGAGCCGCAAAGAAGTTATTAACGGATGAATAATCCCTCAATAAAAATATCTCTCACTTATTTAAA		0.08		
ACAGACGAAGGAGCCGCAAAGAAGTTATTAAGGGATGAAAAATCCCTCAATATAAATAACTCTCACTTATTTAAA		0.632		
CGACATGTCCCGCTTCTTTCATTATTCCGTTAGCAACTGTTTTGCTATATACAATTACCTTTTAAGAGGAGGAAT			1.31	
CGACATGTCCCGCTTCTTTCATTAATCTGTTAGCAACTGTTTTGCTATAAACATTTACCTTTTAAGAGGAGGAAT			0.917	
ACAGACGAAGGAGCCGCAAAGAAATTATTAAGGGATGAATAACCCCTCAATATAAATATCTCTCACTTATTTAAA		0.671		
CGACATGTCCCGCTTCTTTCATTAATCCTTTAGCAACTGTTTTGCTATATACATTTACCATTTAAGAGGAGGAAT			0.837	
ACAGACGAAGGAGCCGCAAATAAGTTATTAAGGGATTAATAATCCCTCAATATAAATATCTCTCACTTATTTAAA	0.863	0.881		
ACAGACGAAGGAGCCGCAAAGAAGTTATTAAGGGATGAATAATAGCTCAATATAAATATCTCTCACTTATTTAAA		0.13		
CGACATGTCCCGCTTCTTTCATTAATCCGTTAGCAACTGTTTGGCTATATACAATTACCTTTTAAGAGGAGGAAT			0.279	
CGACATGTCCCGCTTCTTTCATTAGTCCGTTAGTAACTGTTTTGCTATATACATTTACCTTTTAAGAGGAGGAAT			0.335	
ACAGACGAAGGAGCCGCAAGGAAGTTATTAATGGATGAATAATCCCTCAATATAAATATCTCTCACTTATTTAAA	0.144	0.162		
ACAGACGAAGGAGCCGCAAAGAAGTTATTAAGGGATGAATAATCCCGAAATATAAATATCTCTCACTTATTTAAA		0.323		
CGACATGTCCCGCTTCTTTCATTATTCCGTTAGCAACTATTTTTCTATATACATTTACCTTTTAAGAGGAGGAAT			0.956	
CGACATGTCCCGCTTCTTTCATTAATCCGTTAGCAACTGTTTTGCTAAATTCATTTACCTTTTAAGAGGAGGAAT			0.133	
ACAGACGAAGGAGCCGCTAAGAAGTTATTAAGGCATGAATAATCCCTCAATATAAATATCTCTCACTTATTTAAA	0.115			
ACAGACGAAGGAGCCGCAAAGAAGTTATTAAAGTATGAATAAACCCTCAATATAAATATCTCTCACTTATTTAAA	0.102			
ACAGACGAAGGAGCCGCAAAGAAGTTATCAAGGGATGAATAATACCTCAATATAAATATCTCTCACTTATTTAAA	0.149	0.132		
CGACATGTCCCGCTTCTTTCATTAATCCGTTAGCAACTGTTTTGATATATACATTAACCTTTTAAGAGGAGGAAT			0.832	
